The supplement of paper PMC9112550, “Optimization of the antimicrobial peptide Bac7 by deep mutational scanning” (BMC Biology, 2022)

Test system: Escherichia coli TOP10
Assay: shrunken log2 fold change of peptide-encoding DNA abundance (4.5 h post-induction vs induction); higher = less antimicrobial activity (less host growth inhibition)
Details: time post-induction: 4.5 h; library: site-saturation at positions 5, 18, 19, 20
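Further: peptides expressed intracellularly from a pBAD plasmid library in pooled LB shake-flask culture, induced with 0.3% L-arabinose, DNA abundance read by NGS, three biological replicates, DESeq2 with apeglm shrinkage.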

Sequence	shrunken log2 fold change
RRIRRRPPRLPRPRPRPWRCPRP	0.175
RRIRIRPPRLPRPRPRPECIPRP	-0.0632
RRIRQRPPRLPRPRPRPWPIPRP	-0.152
RRIRHRPPRLPRPRPRPVPFPRP	-0.136
RRIRMRPPRLPRPRPRPDMFPRP	2.25
RRIRMRPPRLPRPRPRPSEVPRP	0.159
RRIRMRPPRLPRPRPRPWYTPRP	-0.012
RRIRLRPPRLPRPRPRPKQGPRP	-0.0685
RRIRQRPPRLPRPRPRPRKSPRP	-0.172
RRIRTRPPRLPRPRPRPCYDPRP	-0.127
RRIRLRPPRLPRPRPRPYNVPRP	-0.119
RRIRVRPPRLPRPRPRPFTNPRP	-0.0456
RRIRGRPPRLPRPRPRPLDYPRP	0.0074
RRIRWRPPRLPRPRPRPDCIPRP	0.0529
RRIRKRPPRLPRPRPRPQAHPRP	0.266
RRIRIRPPRLPRPRPRPWPLPRP	-0.122
RRIRKRPPRLPRPRPRPFSQPRP	-0.151
RRIRARPPRLPRPRPRPNITPRP	-0.0796
RRIRERPPRLPRPRPRPMHHPRP	-0.394
RRIRQRPPRLPRPRPRPERVPRP	0.0836
RRIRWRPPRLPRPRPRPMDHPRP	-0.128
RRIRQRPPRLPRPRPRPHTMPRP	-0.9
RRIRPRPPRLPRPRPRPAVQPRP	0.168
RRIRFRPPRLPRPRPRPKREPRP	0.0359
RRIRRRPPRLPRPRPRPKWPPRP	0.141

Sequence	shrunken log2 fold change
RRIRGRPPRLPRPRPRPMCVPRP	0.723
RRIRGRPPRLPRPRPRPWKVPRP	-0.00197
RRIRNRPPRLPRPRPRPCNMPRP	-0.0735
RRIRSRPPRLPRPRPRPNQFPRP	-0.232
RRIRRRPPRLPRPRPRPAEDPRP	0.987
RRIRNRPPRLPRPRPRPQGGPRP	-0.28
RRIRGRPPRLPRPRPRPVEGPRP	0.305
RRIRLRPPRLPRPRPRPELHPRP	0.327
RRIRNRPPRLPRPRPRPLFPPRP	0.643
RRIRHRPPRLPRPRPRPSANPRP	-0.228
RRIRSRPPRLPRPRPRPGEHPRP	0.0053
RRIRQRPPRLPRPRPRPSNPPRP	0.0169
RRIRKRPPRLPRPRPRPWMHPRP	0.00994
RRIRPRPPRLPRPRPRPDRIPRP	-0.15
RRIRSRPPRLPRPRPRPWHAPRP	0.0362
RRIRARPPRLPRPRPRPTTSPRP	0.292
RRIRPRPPRLPRPRPRPGPEPRP	0.213
RRIRTRPPRLPRPRPRPPEPPRP	0.416
RRIRQRPPRLPRPRPRPKRNPRP	0.29
RRIRRRPPRLPRPRPRPGQNPRP	0.203
RRIRWRPPRLPRPRPRPNIDPRP	-0.21
RRIRDRPPRLPRPRPRPNEPPRP	-0.0233
RRIRMRPPRLPRPRPRPYQLPRP	0.0393
RRIRHRPPRLPRPRPRPWVVPRP	-0.48
RRIRARPPRLPRPRPRPEFSPRP	1.27

Sequence	shrunken log2 fold change
RRIRWRPPRLPRPRPRPCEAPRP	0.471
RRIRIRPPRLPRPRPRPVNKPRP	-0.426
RRIRYRPPRLPRPRPRPISWPRP	-0.0102
RRIRERPPRLPRPRPRPGFCPRP	-0.122
RRIRGRPPRLPRPRPRPDEAPRP	1.56
RRIRWRPPRLPRPRPRPRPRPRP	0.974
RRIRRRPPRLPRPRPRPQYRPRP	-0.0575
RRIRLRPPRLPRPRPRPVYMPRP	-0.283
RRIRERPPRLPRPRPRPKMTPRP	-0.0406
RRIRWRPPRLPRPRPRPKYCPRP	-0.245
RRIRLRPPRLPRPRPRPKATPRP	-0.116
RRIRKRPPRLPRPRPRPEHDPRP	0.169
RRIRSRPPRLPRPRPRPYNHPRP	-1.54
RRIRKRPPRLPRPRPRPNTCPRP	0.0343
RRIRFRPPRLPRPRPRPTRYPRP	0.172
RRIRNRPPRLPRPRPRPDIHPRP	-0.0173
RRIRMRPPRLPRPRPRPSVIPRP	-0.244
RRIRARPPRLPRPRPRPYGPPRP	-0.264
RRIRMRPPRLPRPRPRPCWHPRP	-0.0624
RRIRDRPPRLPRPRPRPHPEPRP	0.004
RRIRERPPRLPRPRPRPWDVPRP	0.0649
RRIRSRPPRLPRPRPRPVYKPRP	-0.166
RRIRIRPPRLPRPRPRPDNCPRP	-0.162
RRIRIRPPRLPRPRPRPYMKPRP	-0.495
RRIRERPPRLPRPRPRPLYVPRP	-0.939

Sequence	shrunken log2 fold change
RRIRNRPPRLPRPRPRPKWGPRP	0.147
RRIRARPPRLPRPRPRPEDKPRP	1.89
RRIRNRPPRLPRPRPRPSQMPRP	-0.232
RRIRRRPPRLPRPRPRPTVGPRP	0.0232
RRIRFRPPRLPRPRPRPYIHPRP	-0.932
RRIRRRPPRLPRPRPRPCGNPRP	0.0466
RRIRVRPPRLPRPRPRPRYDPRP	-0.0252
RRIRMRPPRLPRPRPRPNHLPRP	-0.0575
RRIRWRPPRLPRPRPRPSQGPRP	0.27
RRIRTRPPRLPRPRPRPSADPRP	-0.0419
RRIRTRPPRLPRPRPRPKAAPRP	0.565
RRIRYRPPRLPRPRPRPNFLPRP	-0.623
RRIRFRPPRLPRPRPRPLKWPRP	-0.13
RRIRMRPPRLPRPRPRPSPQPRP	0.716
RRIRARPPRLPRPRPRPDNEPRP	0.301
RRIRYRPPRLPRPRPRPYDKPRP	-1.24
RRIRHRPPRLPRPRPRPAYKPRP	-0.102
RRIRCRPPRLPRPRPRPVRRPRP	1.1
RRIRRRPPRLPRPRPRPHMGPRP	-0.15
RRIRIRPPRLPRPRPRPAWLPRP	0.272
RRIRWRPPRLPRPRPRPFKCPRP	-0.127
RRIRYRPPRLPRPRPRPKIYPRP	-0.884
RRIRKRPPRLPRPRPRPQKNPRP	0.319
RRIRRRPPRLPRPRPRPVYFPRP	-0.267
RRIRSRPPRLPRPRPRPVELPRP	0.105

Sequence	shrunken log2 fold change
RRIRFRPPRLPRPRPRPWPMPRP	-0.117
RRIRTRPPRLPRPRPRPEIKPRP	-0.0117
RRIRQRPPRLPRPRPRPVWAPRP	-0.468
RRIRLRPPRLPRPRPRPTYRPRP	-0.266
RRIRPRPPRLPRPRPRPECVPRP	0.541
RRIRLRPPRLPRPRPRPFLPPRP	-0.171
RRIRIRPPRLPRPRPRPRMEPRP	-0.00396
RRIRWRPPRLPRPRPRPSTAPRP	0.316
RRIRCRPPRLPRPRPRPYIMPRP	-1.48
RRIRNRPPRLPRPRPRPYLPPRP	-0.245
RRIRARPPRLPRPRPRPMNGPRP	-0.0023
RRIRERPPRLPRPRPRPCMFPRP	-0.531
RRIRQRPPRLPRPRPRPSILPRP	-0.177
RRIRKRPPRLPRPRPRPWYNPRP	-0.00192
RRIRTRPPRLPRPRPRPYEVPRP	-0.0168
RRIRQRPPRLPRPRPRPVSAPRP	0.104
RRIRARPPRLPRPRPRPCEIPRP	0.196
RRIRNRPPRLPRPRPRPTVCPRP	-0.0905
RRIRERPPRLPRPRPRPSVLPRP	-0.312
RRIRWRPPRLPRPRPRPPKQPRP	1.07
RRIRFRPPRLPRPRPRPLICPRP	-0.286
RRIRVRPPRLPRPRPRPLIIPRP	-0.445
RRIRTRPPRLPRPRPRPAKGPRP	0.0671
RRIRARPPRLPRPRPRPGRPPRP	0.801
RRIRVRPPRLPRPRPRPSVTPRP	-0.222

Sequence	shrunken log2 fold change
RRIRYRPPRLPRPRPRPKWVPRP	-0.0135
RRIRVRPPRLPRPRPRPIGCPRP	-0.0514
RRIRWRPPRLPRPRPRPCRNPRP	-0.0199
RRIRTRPPRLPRPRPRPFPYPRP	-0.00797
RRIRFRPPRLPRPRPRPWHMPRP	-0.121
RRIRFRPPRLPRPRPRPNPPPRP	0.544
RRIRYRPPRLPRPRPRPAPTPRP	0.169
RRIRSRPPRLPRPRPRPNHSPRP	-0.736
RRIRERPPRLPRPRPRPFFNPRP	1.38
RRIRHRPPRLPRPRPRPYSLPRP	-0.319
RRIRIRPPRLPRPRPRPRLCPRP	0.0776
RRIRKRPPRLPRPRPRPQPGPRP	0.406
RRIRIRPPRLPRPRPRPLFEPRP	-0.251
RRIRTRPPRLPRPRPRPATYPRP	-0.169
RRIRHRPPRLPRPRPRPNMWPRP	-0.799
RRIRFRPPRLPRPRPRPGPEPRP	0.103
RRIRCRPPRLPRPRPRPTDWPRP	0.169
RRIRGRPPRLPRPRPRPNGVPRP	-0.186
RRIRERPPRLPRPRPRPCMRPRP	-0.0898
RRIRFRPPRLPRPRPRPYQLPRP	-0.573
RRIRPRPPRLPRPRPRPPISPRP	-0.0159
RRIRPRPPRLPRPRPRPAVNPRP	-0.103
RRIRARPPRLPRPRPRPMEQPRP	0.0309
RRIRMRPPRLPRPRPRPNQKPRP	0.00203
RRIRVRPPRLPRPRPRPKFGPRP	0.017
